Test: yeast display, Sf9 membrane polyspecificity reagent, FACS + sequencing; frameworks hold sequencing errors
How it was run: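 In a synthetic yeast display library (Saccharomyces cerevisiae BJ5465), nanobody expression was induced with galactose for 36–48 hours. FACS gates were set low and high (top ~1%) using anti-HA fluorescence for expression and streptavidin fluorescence for binding of the Sf9 membrane reagent. Each polyreactivity label is drawn from the gate of origin.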

| Sequence | polyreactivity (PSR sort gate) |
| --- | --- |
| QVQLVESGGGLVQAGGSLRLSSAASGFTFVTYSKGWNRQATGKERELVAAISIRGGSTYADSVKGRFTISRDNAKNSVYLQMNSLKPEDTAVYSCATGRALEYNYWGQGTQVTVSS | low polyreactivity |
| QVQLVESGGGLVQAGGSLRLSSAASGFTLDWYVIGWYRKAPWKERELVAAISSSGGRTYYADSVKGRFTISRDNAKNTVYLQMNSLKPEDTAVYYCAARNIYGGYPYGYDYWGQGTQVTVSS | high polyreactivity |
| QVQLVESGGGLVQAGGSLRLSSAASGHHFRTNAMGWYRQAPGKERELVAVINIGGASTYYADSVKGRFTISRDNAKNTVNLQMNSLKPEDTAVYYCAQEFYDGYFPTFDYDYWGQGTQVTVSS | low polyreactivity |
| QVQLVESGGGLVQAGGSLRLSSAASGIIFTFNAMRWYRQAPGKEMELVAGISLGGSSTNYADSVKGRFTISRDNAKNTVYLQMNSLKPEDTAVYYCAAYVDIVGDYWVVGYYYWGQGTQVTVSS | low polyreactivity |
| QVQLVESGGGLVQAGGSLRLSSAASGITFDVNVMGWYRQAPRKERELVAAIRRGDSTDYADSVKGRFSISRDNEKNTVYLQMKSLKPEDTAVYYCAADDSGYELRAYTWPYFGYDYWGQGTQVTVSS | low polyreactivity |
| QVQLVESGGGLVQAGGSLRLSSAASGITFYDYAMGWSRPSPGKERELVAAINSSGVRTYYADSVKGRFTISRDNAKNTVYLQMKSLNPEYTAVYYCAAKLVYGGRYGYWGQGTQVTVSS | high polyreactivity |
| QVQLVESGGGLVQAGGSLRLSSAASGITFYGYARGWYRQPPGKEREFVAAISYSGGSTYYADSVKGRFTISRDNAKNTVYLQMNSLKPEDTAVYYCAARVGRSLYGYWGLGTQVTVSS | high polyreactivity |
| QVQLVESGGGLVQAGGSLRLSSAASGLIFFTYAMGWYRQAPGKERELVATISRGGRTKYADSVKGRFTISRDNAKNSVYLQMNSLKPEDTAVYYCAAYLSRSYYAYDYWGQGTQVTVSS | high polyreactivity |
| QVQLVESGGGLVQAGGSLRLSSAASGNIFTYNAMGWYRPARGTERELVAAISSGGSTNYADSVKGRFTISRHNAKNTVYLQLNSLKPEDTAVYYCAADLTISYSQEYYYWGQGTQETVSS | low polyreactivity |
| QVQLVESGGGLVQAGGSLRLSSAASGRIFAVYAMGLYRQAPGKERELVAAINWNDGSTYYADSVKGRFTISRDNAKNTVYLQMNSLKPEDTAVYYCAARALSRSVYGKSGYKYGYWGQGTQVTVSS | high polyreactivity |
| QVQLVESGGGLVQAGGSLRLSSAASGRIFDGNAMGGYRQAPGTERELVATINRGARTNYADSVKGRFTISRDNAKNTVYLQMNSLKPEDTAVYYCATSYPGYAYNQAWYPYGYWGQGTQVTVSS | low polyreactivity |
| QVQLVESGGGLVQAGGSLRLSSAASGRIFDYYAMGWYRQAPGKESELVAAISSGSSTNYADSVKGRFTISRDNAKNTFYLQMNSLKPEDTAVYYCAATYGYLRRNHYNYWGQGTQVTVSS | high polyreactivity |
| QVQLVESGGGLVQAGGSLRLSSAASGRIFGFNAMGWYRPAPGKERELVAAITWGVGSTYYADSVKGRFTISRDNAKNTVYLQMNSLKPEDTAVYYCAAVSYAAVYGFDYWGQGTQVTVSS | high polyreactivity |
| QVQLVESGGGLVQAGGSLRLSSAASGRIFGYNAMGWYRQAPGKERELVAVITYRGTSTYYADSVKGRFTISRDNAKNTVYLQMNSLKPEDTAVYYCAAVNGGYWRYYYWGQGTQVTVSS | high polyreactivity |
| QVQLVESGGGLVQAGGSLRLSSAASGRIFNSYAMGWYRQAPGKERELVAIIRSSGTTYYADSVKGRFTISRDNAKNSVYVQMNSLKPEDTAVYDCAADPYYWRQFNYDYWGHGTQVTVSS | high polyreactivity |
| QVQLVESGGGLVQAGGSLRLSSAASGRIFNWYTMGWYRQSPGKERELVAAITSGGTTTYYADSVKGRFTISRDNAKNTVYLQMTSLKPEDTAVYYCAARRGGRRGYDYWGQGTQVTVSS | high polyreactivity |
| QVQLVESGGGLVQAGGSLRLSSAASGRIFPYYAMGWYRQAPGKETELVATISSGGRTNYADSVKGRFTISRDNAKYTVYLQMNSLKPEDTAVYYCAADYRKSRVFYGLYYWGQGTQVTVSS | high polyreactivity |
| QVQLVESGGGLVQAGGSLRLSSAASGRIFVGYAKGWYIQAPGKERELVAGIRYSGGSTYYADSVKGRFTISRDNAKNTVYLQMNSLKPEDTAVYYCATQVWHYAGRPNYKYDYWGQGTQVTVSS | low polyreactivity |
| QVQLVESGGGLVQAGGSLRLSSAASGRIFVNYAMGSSRQAPGKERELVAAITSDGSTSYADSVNGRFTISRDNAKNTVFLEMNSLKPEDTAVYYCAKGQRDREEYDYWGQGTQVTVSS | low polyreactivity |
| QVQLVESGGGLVQAGGSLRLSSAASGRTFAVYTMRWYRQAPGKEREFVARIRYSGGNTYYADSVKRRFTLSRDNAKNTVYLQMNSLKPEDTAVYSCAARSRYRVYGSRNFDYWGQGSQVTVSS | high polyreactivity |
| QVQLVESGGGLVQAGGSLRLSSAASGRTFFRYAMGWYRQAPGKERELVAAITWSGGTTYYADSVKGRFTISRDNAKNTVYLQMNSLKPEDTAVYYCNGRGLWYRRVVTYGYWGQGTQVTVSS | high polyreactivity |
| QVQLVESGGGLVQAGGSLRLSSAASGRTFGWNSMGWYRHAPGKERELVAAISRTGNTYYADSVKGRFTISRDNAKNTVYLQMNSLKPEDTAVYYCAKGRYYTPTYFRGVDLYDYWGQGTQVTVSS | low polyreactivity |

| Sequence | polyreactivity (PSR sort gate) |
| --- | --- |
| QVQLVESGGGLVQAGGSLRLSSAASGRTFRGYAMGWYRQAPGKERELVAAISVTGSSTNYAYSVKGRFTISRDNAKNTVYLQMNRLKPEDTAVYDCNAKRVRYSLSYDYWGQGTQVTVSS | high polyreactivity |
| QVQLVESGGGLVQAGGSLRLSSAASGRTFYYYAMGWYRQAPGKERELVAAITSRGTSTYYADSVKGRFTISRDNAKNTVYLQMNSLKPEDTAVFYCAAGFICYYGNGYDYWGQGTQVTVSS | high polyreactivity |
| QVQLVESGGGLVQAGGSLRLSSAASGRTLASYAIGWYRQAPGQESELVAAISKRGGGTYYADSVKGRFTISRDNAKNTVYLQMNSLKPEDTAVYYCAKGTGYKPVVTTHPMDYWGQGTQVTVSS | high polyreactivity |
| QVQLVESGGGLVQAGGSLRLSSAASGRTLFDNAMGWYRQAPGKEREWVAAIRSDGNTNYADSVKGRFTISRDNAKNTVYLQMNSLKPEDTAVYYCNARSYVGSSRDNYWGQGTQVTVSS | low polyreactivity |
| QVQLVESGGGLVQAGGSLRLSSAASGRTLRGYAMGWYRQAPGKERELVAAITWSGGSTYYADSVKGRFTISRDNAKNTVYLQMNSLKPEDTAVYYCNARSYPDLYDYWGQGTQVTVSS | low polyreactivity |
| QVQLVESGGGLVQAGGSLRLSSAASGSIFGRYVMGWYRQAPGKERELVATISSGGSTYYADSVKGRFTISRDNAKNTVYLQMNSLKPEVTAVYYCNADYGYEYDYWGQGTQVTVSS | low polyreactivity |
| QVQLVESGGGLVQAGGSLRLSSAASGSIFLLYAKGWDRQAPGKERELVAAISRSGDSTHYADSVKGRFTISRDNAKNTVYLQMNSLQPEDTAVYYCAADGYDPYGGLYAYWGHGTQVTVSS | low polyreactivity |
| QVQLVESGGGLVQAGGSLRLSSAASGSIFPLYAMGWYRQAPGKERELVATINRRTGSTYADSVKGRFTISRDNAKNTVYLQMKSLKPEYTAVYYCNAADNYVLFYKTRIYNYWGQGTQVTVSS | high polyreactivity |
| QVQLVESGGGLVQAGGSLRLSSAASGSIFPRYVMGCYRQAPGKERELVPAISRGGSTNYADSVKGRFTISRDNAKNTVYLQMNSLKPEDTAVYYCDAVLYTRYNYWGQGTQVTVSS | high polyreactivity |
| QVQLVESGGGLVQAGGSLRLSSAASGSIFSAYAMGWYRQAPGKERELVATISRSGASTYYADSVKGRFTISRDNAKNTVYLQMNSLKPEDTAVYYCAARYYSPAYRLGGVDYWGQGTQVTVSS | high polyreactivity |
| QVQLVESGGGLVQAGGSLRLSSAASGSIFWPNTMGWYRPAPGKERELVAGISFGGGSTYYADSVKGRFTISRDNAKNTVYLQMNRLKPEDTAVYYCNGDDPGYAGPWYWFKYDYWGQGTQVTVSS | low polyreactivity |
| QVQLVESGGGLVQAGGSLRLSSAASGSIFYNNAMGWYRQAPGKERELVAAISGSGDSTYYADSVKGRFTISRDNAKNTVYLQMNSLIPDDTAVYYCNATPYVLWWSDMDYWGQGTQVTVSS | high polyreactivity |
| QVQLVESGGGLVQAGGSLRLSSAASGSILGDYGMGWYRQAPGKERELVAAITWNGDSTYYADSVKGRFTISRDNAKNTVYLQMNSLKPEDTAVYYCAADLQDYKYYPWYGYWGQGTQVTVSS | low polyreactivity |
| QVQLVESGGGLVQAGGSLRLSSAASGSISADYVMGWYRQAPGKERELVAAISVSAGTTYYADSVKGRFTISRDNAKNTVYLQMNSLKPEDTAVYYCAATDSYYWLYYYGYSPGNDYWGQGTQVTVSS | low polyreactivity |
| QVQLVESGGGLVQAGGSLRLSSAASGSPFIYYVMGWYRQAPGKERELVAAITRSGSTNYADSVKGRFTISRDNAKNTVYLQMNSLKPEDTAVYYCAAERALSRYGYWGHGTQVTVSS | low polyreactivity |
| QVQLVESGGGLVQAGGSLRLSSAASGSTFAFYDMGWYRQAPGKERELVAGISSSGSTYYADSVKGRFTISRDNAKNTVYLQMNSLKPEDTAVYYCAAVLSVRVYGYDYWGQGTQVTVSS | low polyreactivity |
| QVQLVESGGGLVQAGGSLRLSSAASGSTFDSNAMGWYRQAPGKERELVAAIDYSSDSTYYADSVKGRFTISRDNAKNTVYLQMNSLKPEDTAVYYCAAVAYIFCARYGYNYWGQGTQVTVSS | low polyreactivity |
| QVQLVESGGGLVQAGGSLRLSSAASGSTFGSYTMGWYRQAPGKERELVAAINWSGGNTYYADSVKGRFTISRDNAKNTVYLQMNSLKPEDPAVYYCAAAFYIYGVEGDYWGQGTQVTVSS | low polyreactivity |
| QVQLVESGGGLVQAGGSLRLSSAASGSTFISYAMGRYSQAPGQDRELVAAISSGGGRTSYADSVKGRLTISRDHAKNTVYLQMNSLKPEDTAVYYCNKTPHFPRPGFNYWGQGTHVTVSS | low polyreactivity |
| QVQLVESGGGLVQAGGSLRLSSAASGSTFTAYAMGWYRQAPGTERELVAAISRSRGRTYYADSVKGRFTISRDNAKYTVYLEMISLKPEDTAVLYCNARGGSDGDYWGQGTQVTVSS | high polyreactivity |
| QVQLVESGGGLVQAGGSLRLSSAASGSTFVYNYMGWYRQAPGKERELVAAIDSGGSTYYADSVKGRFTISRDNAKNTVYLQMNSLKPEDTAVYYCAASSDSYFGYHYYYWGQGTQVTVSS | low polyreactivity |

Source: the nanobody polyreactivity screen of Harvey et al. (2022)
